Ends that are not written are not given here.
Assays:
ApoC3 peptide … F61I = target: T1, ApoC3 peptide … F61I (human, cyclic constrained); experiment: cyclic peptide substitution array
T1 peptide: DKISEFWDLDPEV

ApoC3 peptide … L67N = target: T2, ApoC3 peptide … L67N (human, not fully specified (bridges); also: cyclic constrained); experiment: cyclic peptide substitution array
T2 peptide: DKFSEFWDNDPEV

ApoC3 peptide … E63W = ApoC3 peptide … E63W (human, cyclic constrained); experiment: cyclic peptide substitution array
[1] = target: T3, wild-type ApoC3 peptide DKFSEFWDLDPEV (SEQ ID NO: 44) (human, not fully specified (bridges); also: cyclic constrained, ring type and positions not given here); experiment: peptide microarray
T3 construct: 13 aa cyclic constrained peptide
T3 peptide: DKFSEFWDLDPEV
In short: (§1)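 ApoC3 peptide microarrays incubated with antibody samples and then stained with goat anti-human IgG (Fc) DyLight680 plus anti-HA DyLight800 control antibody. Scanned at intensity 7/7 (red/green); a secondary-only prestain checked for background, and framing HA peptides served as quality control.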

ApoC3 peptide … D59A = target: T4, ApoC3 peptide … D59A (human, cyclic constrained); experiment: peptide microarray
T4 peptide: AKFSEFWDLDPEV
In short: as §1

ApoC3 peptide … F61A = target: T5, ApoC3 peptide … F61A (human, cyclic constrained); experiment: peptide microarray
T5 peptide: DKASEFWDLDPEV
In short: as §1

ApoC3 peptide … E63A = ApoC3 peptide … E63A (human, cyclic constrained); experiment: peptide microarray
In short: as §1

ApoC3 peptide … K60C = target: T6, ApoC3 peptide … K60C (human, not fully specified (bridges); also: cyclic constrained); experiment: peptide microarray
T6 peptide: DCFSEFWDLDPEV
In short: as §1

ApoC3 peptide … L67C = target: T7, ApoC3 peptide … L67C (human, not fully specified (bridges); also: cyclic constrained); experiment: peptide microarray
T7 peptide: DKFSEFWDCDPEV
In short: as §1

ApoC3 peptide … D66E = target: T8, ApoC3 peptide … D66E (human, not fully specified (bridges); also: cyclic constrained); experiment: peptide microarray
T8 peptide: DKFSEFWELDPEV
In short: as §1

ApoC3 peptide … D59G = target: T9, ApoC3 peptide … D59G (human, cyclic constrained); experiment: peptide microarray
T9 peptide: GKFSEFWDLDPEV
In short: as §1

ApoC3 peptide … L67G = target: T10, ApoC3 peptide … L67G (human, not fully specified (bridges); also: cyclic constrained); experiment: peptide microarray
T10 peptide: DKFSEFWDGDPEV
In short: as §1

ApoC3 peptide … K60H = target: T11, ApoC3 peptide … K60H (human, not fully specified (bridges); also: cyclic constrained); experiment: peptide microarray
T11 peptide: DHFSEFWDLDPEV
In short: as §1

ApoC3 peptide … W65H = target: T12, ApoC3 peptide … W65H (human, not fully specified (bridges); also: cyclic constrained, ring type and places not given here); experiment: peptide microarray
T12 peptide: DKFSEFHDLDPEV
In short: as §1

ApoC3 peptide … S62L = ApoC3 peptide … S62L (human, cyclic constrained); experiment: peptide microarray
In short: as §1

ApoC3 peptide … E70M = target: T13, ApoC3 peptide … E70M (human, not fully specified (bridges); also: cyclic constrained); experiment: peptide microarray
T13 peptide: DKFSEFWDLDPMV
In short: as §1

ApoC3 peptide … V71M = ApoC3 peptide … V71M (human, cyclic constrained); experiment: peptide microarray
In short: as §1

ApoC3 peptide … K60N = target: T14, ApoC3 peptide … K60N (human, not fully specified (bridges); also: cyclic constrained); experiment: peptide microarray
T14 peptide: DNFSEFWDLDPEV
In short: as §1

ApoC3 peptide … W65N = target: T15, ApoC3 peptide … W65N (human, not fully specified (bridges); also: cyclic constrained, ring type and places not given here); experiment: peptide microarray
T15 peptide: DKFSEFNDLDPEV
In short: as §1

ApoC3 peptide … E70N = target: T16, ApoC3 peptide … E70N (human, not fully specified (bridges); also: cyclic constrained); experiment: peptide microarray
T16 peptide: DKFSEFWDLDPNV
In short: as §1

ApoC3 peptide … D59P = target: T17, ApoC3 peptide … D59P (human, cyclic constrained); experiment: peptide microarray
T17 peptide: PKFSEFWDLDPEV
In short: as §1

ApoC3 peptide … F64P = target: T18, ApoC3 peptide … F64P (human, not fully specified (bridges); also: cyclic constrained); experiment: peptide microarray
T18 peptide: DKFSEPWDLDPEV
In short: as §1

ApoC3 peptide … K60Q = target: T19, ApoC3 peptide … K60Q (human, not fully specified (bridges); also: cyclic constrained); experiment: peptide microarray
T19 peptide: DQFSEFWDLDPEV
In short: as §1

ApoC3 peptide … S62Q = ApoC3 peptide … S62Q (human, cyclic constrained); experiment: peptide microarray
In short: as §1

ApoC3 peptide … D68Q = target: T20, ApoC3 peptide … D68Q (human, cyclic constrained); experiment: peptide microarray
T20 peptide: DKFSEFWDLQPEV
In short: as §1

ApoC3 peptide … P69Q = ApoC3 peptide … P69Q (human, cyclic constrained); experiment: peptide microarray
In short: as §1

ApoC3 peptide … E70Q = target: T21, ApoC3 peptide … E70Q (human, not fully specified (bridges); also: cyclic constrained); experiment: peptide microarray
T21 peptide: DKFSEFWDLDPQV
In short: as §1

ApoC3 peptide … D59R = target: T22, ApoC3 peptide … D59R (human, cyclic constrained); experiment: peptide microarray
T22 peptide: RKFSEFWDLDPEV
In short: as §1

ApoC3 peptide … F61R = target: T23, ApoC3 peptide … F61R (human, not fully specified (bridges); also: cyclic constrained); experiment: peptide microarray
T23 peptide: DKRSEFWDLDPEV
In short: as §1

ApoC3 peptide … F61T = target: T24, ApoC3 peptide … F61T (human, not fully specified (bridges); also: cyclic constrained); experiment: peptide microarray
T24 peptide: DKTSEFWDLDPEV
In short: as §1

ApoC3 peptide … E70T = target: T25, ApoC3 peptide … E70T (human, cyclic constrained); experiment: peptide microarray
T25 peptide: DKFSEFWDLDPTV
In short: as §1

ApoC3 peptide … V71T = ApoC3 peptide … V71T (human, cyclic constrained); experiment: peptide microarray
In short: as §1

ApoC3 peptide … F61V = target: T26, ApoC3 peptide … F61V (human, not fully specified (bridges); also: cyclic constrained); experiment: peptide microarray
T26 peptide: DKVSEFWDLDPEV
In short: as §1

ApoC3 peptide … V71W = ApoC3 peptide … V71W (human, cyclic constrained); experiment: peptide microarray
In short: as §1

ApoC3 peptide … P69Y = ApoC3 peptide … P69Y (human, cyclic constrained); experiment: peptide microarray
In short: as §1

B1: Llama antibody 5E5 (antibody, V domains shown)
VH: QLQLVESGGGLVQPGGSLRLSCAASGFTFGTYSMRWVRQVPRKALEWVSSISTDGGGTAYRDSVKGRFTISRDNAKNTLYLQMNNLKPEDTAIYYCVIAGYSDWGQGTQVTVSS
VL: ATMLTQSPGSLSVVPGESASISCKTSQGLVHSDGKTYFYWFLQKPGQSPQQLIYQVSNRASGVPDRFTGSGSGTDFTLKISGVKAEDAGVYYCAQGTYYPHTFGSGTRLEIK
notes: detected with goat anti-human IgG (Fc); also called mAb 5E5
- % of binding to wild-type peptide (ApoC3 peptide … F61I): 7.59%
- % of binding to wild-type peptide (ApoC3 peptide … L67N): 9.84%
- % of binding to wild-type peptide (ApoC3 peptide … E63W): 9.57%

B2: anti-ApoC3 antibody 6A6 (antibody, V domains shown)
VH: EVQLVESGGGLVQPGGSLRLSCAASGFTFSSYAGRWVRQVPGKGLEWVSSINAGGGSTSYADSVKGRFTISRDNAKNTLYLQMNSLKPEDTAKYYCTQNSYRYWGQGTRVAVSS
VL: DVVLTQTPGSLSVVPGESASISCKASQSLIHTDGKTYLYWLLQKPGQRPQLLIYQVSSHESGVPDRFTGSGSGTDFTLKISGVKAEDAGVYYCAQATYNPRTFGQGTKLEIK
notes: it was detected with goat anti-human IgG (Fc); also called mAb 6A6; llama antibody 6A6
- % of binding to wild-type peptide [1]: 100%
- % of binding to wild-type peptide (ApoC3 peptide … D59A): 86.4%
- % of binding to wild-type peptide (ApoC3 peptide … F61A): 41.1%
- % of binding to wild-type peptide (ApoC3 peptide … E63A): 36.7%
- % of binding to wild-type peptide (ApoC3 peptide … K60C): 84%
- % of binding to wild-type peptide (ApoC3 peptide … L67C): 1.13%
- % of binding to wild-type peptide (ApoC3 peptide … D66E): 18.9%
- % of binding to wild-type peptide (ApoC3 peptide … D59G): 87.5%
- % of binding to wild-type peptide (ApoC3 peptide … L67G): 0.6%
- % of binding to wild-type peptide (ApoC3 peptide … K60H): 124%
- % of binding to wild-type peptide (ApoC3 peptide … W65H): 17%
- % of binding to wild-type peptide (ApoC3 peptide … S62L): 81%
- % of binding to wild-type peptide (ApoC3 peptide … E70M): 2.34%
- % of binding to wild-type peptide (ApoC3 peptide … V71M): 105%
- % of binding to wild-type peptide (ApoC3 peptide … K60N): 139%
- % of binding to wild-type peptide (ApoC3 peptide … W65N): 56.5%
- % of binding to wild-type peptide (ApoC3 peptide … E70N): 0.15%
- % of binding to wild-type peptide (ApoC3 peptide … D59P): 107%
- % of binding to wild-type peptide (ApoC3 peptide … F64P): 285%
- % of binding to wild-type peptide (ApoC3 peptide … K60Q): 140%
- % of binding to wild-type peptide (ApoC3 peptide … S62Q): 111%
- % of binding to wild-type peptide (ApoC3 peptide … D68Q): 0%
- % of binding to wild-type peptide (ApoC3 peptide … P69Q): 28.2%
- % of binding to wild-type peptide (ApoC3 peptide … E70Q): 2.1%
- % of binding to wild-type peptide (ApoC3 peptide … D59R): 70.2%
- % of binding to wild-type peptide (ApoC3 peptide … F61R): 35.6%
- % of binding to wild-type peptide (ApoC3 peptide … F61T): 56.3%
- % of binding to wild-type peptide (ApoC3 peptide … E70T): 1.55%
- % of binding to wild-type peptide (ApoC3 peptide … V71T): 94.5%
- % of binding to wild-type peptide (ApoC3 peptide … F61V): 47%
- % of binding to wild-type peptide (ApoC3 peptide … V71W): 59.2%
- % of binding to wild-type peptide (ApoC3 peptide … P69Y): 52%

Source: patent publication US20190241648A1 (STATEN BIOTECHNOLOGY B V, published 2019)
